Measured values from patent US20200231691A1 (Hoffmann-La Roche, published 2020).

Assays:
murine EpCAM = molecular target: T1, murine EpCAM (murine, UniProt Q99JW5 24-315); assay: flow cytometry, muEpCAM+ CT26muEpCAM cells
T1 construct: Stably expressed on CT26muEpCAM cl25 cells; also called muEpCAM; CT26muEpCAM cells
T1 sequence: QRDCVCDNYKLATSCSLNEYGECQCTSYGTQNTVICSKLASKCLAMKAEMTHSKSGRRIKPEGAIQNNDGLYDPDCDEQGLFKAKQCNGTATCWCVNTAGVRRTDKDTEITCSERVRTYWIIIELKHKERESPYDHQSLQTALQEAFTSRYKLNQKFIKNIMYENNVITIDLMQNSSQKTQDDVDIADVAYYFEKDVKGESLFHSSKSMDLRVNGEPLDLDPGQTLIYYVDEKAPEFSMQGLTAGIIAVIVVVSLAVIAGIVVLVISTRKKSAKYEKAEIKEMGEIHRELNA
Method: (§1) The binding to cell surface murine EpCAM was analysed using mouse EpCAM-positive CT26muEpCAM c125 cells, which stably expresses murine EpCAM. The specificity of binding was analysed by determination of binding to muEpCAM-negative cell line CT26muFAP, which stably expresses murine FAP.
(§2) For analysis of binding of the antigen binding molecules, 0.5×10⁵ CT26muEpCAM or 0.5×10⁵ CT26muFAP cells were added to wells of round-bottomed suspension cell 96-well plates (greiner bio-one, cellstar, Cat. No. 650185). For discrimination of live and dead cells, samples were stained with Zombie Aqua Viability Dye (Biolegend, Cat. No 423102) in PBS for 10 minutes at room temperature. Cells were then washed once with FACS buffer and subsequently stained for 90 minutes at 4° C. in the dark in 50 μL/well 4° C.
(§3) Plates were finally resuspended in 85 μL/well FACS-buffer and acquired the same day using 4-laser LSR-II cytometer (BD Bioscience with DIVA software).

murine OX40 [1] = molecular target: T2, murine OX40 (murine, UniProt P47741 20-272); assay: flow cytometry, activated murine OX40+ CD4+ T cells
T2 construct: also called muOX40
T2 sequence: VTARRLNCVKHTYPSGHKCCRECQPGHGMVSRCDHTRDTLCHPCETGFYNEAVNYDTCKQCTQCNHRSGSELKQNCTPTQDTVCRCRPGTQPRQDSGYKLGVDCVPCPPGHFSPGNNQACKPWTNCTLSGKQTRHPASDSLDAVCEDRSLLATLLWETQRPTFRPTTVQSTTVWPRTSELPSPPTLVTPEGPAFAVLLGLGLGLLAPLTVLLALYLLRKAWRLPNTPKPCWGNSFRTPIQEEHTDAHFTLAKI
Method: (§4) For labeling cells were harvested, washed with pre-warmed (37° C.) DPBS and adjusted to a cell density of 1×10⁷ cells/mL in DPBS. eFluor670 cell proliferation dye (eBioscience, Cat.-No. 65-0840-85) was added to the suspension of naïve splenocytes at a final concentration of 2.5 μM and a final cell density of 0.5×10⁷ cells/mL in DPBS. Cells were then incubated for 10 min at room temperature in the dark. To stop labeling reaction, 4 mL heat inactivated FBS were added and cells were washed three times with T cell medium. A mixture of 1×10⁵ resting eFluor670 labeled splenocytes and 1×10⁵ unlabeled activated splenocytes were then added to wells of round-bottomed suspension 96-well plates (Greiner bio-one, cellstar, Cat. No. 650185).
(§5) For discrimination between live and dead cells, samples were stained with Zombie Aqua Viability Dye (Biolegend, Cat. No. 423102) in DPBS for 10 minutes at room temperature. Cells were then washed once with FACS buffer and subsequently stained for 90 minutes at 4° C. in the dark in 50 μL/well 4° C. […] After washing three times with excess FACS buffer, cells were stained for 30 minutes at 4° C. in the dark in 25 μL/well 4° C.
(§6) Plates were finally resuspended in 85 μL/well FACS buffer and acquired the same day using 4-laser LSR-II cytometer (BD Bioscience with DIVA software).

murine OX40 [2] = molecular target: T2, murine OX40; assay: flow cytometry, activated murine OX40+ CD8+ T cells
Method: as §4, §5, §6

murine FAP = molecular target: T3, murine FAP (murine, UniProt P97321 1-761); assay: flow cytometry on CT26muFAP cells, which stably express murine FAP
T3 construct: whole, on cells; CT26muFAP served as the muEpCAM-negative specificity control cell line; also called muFAP; CT26muFAP cells
T3 sequence (looked up): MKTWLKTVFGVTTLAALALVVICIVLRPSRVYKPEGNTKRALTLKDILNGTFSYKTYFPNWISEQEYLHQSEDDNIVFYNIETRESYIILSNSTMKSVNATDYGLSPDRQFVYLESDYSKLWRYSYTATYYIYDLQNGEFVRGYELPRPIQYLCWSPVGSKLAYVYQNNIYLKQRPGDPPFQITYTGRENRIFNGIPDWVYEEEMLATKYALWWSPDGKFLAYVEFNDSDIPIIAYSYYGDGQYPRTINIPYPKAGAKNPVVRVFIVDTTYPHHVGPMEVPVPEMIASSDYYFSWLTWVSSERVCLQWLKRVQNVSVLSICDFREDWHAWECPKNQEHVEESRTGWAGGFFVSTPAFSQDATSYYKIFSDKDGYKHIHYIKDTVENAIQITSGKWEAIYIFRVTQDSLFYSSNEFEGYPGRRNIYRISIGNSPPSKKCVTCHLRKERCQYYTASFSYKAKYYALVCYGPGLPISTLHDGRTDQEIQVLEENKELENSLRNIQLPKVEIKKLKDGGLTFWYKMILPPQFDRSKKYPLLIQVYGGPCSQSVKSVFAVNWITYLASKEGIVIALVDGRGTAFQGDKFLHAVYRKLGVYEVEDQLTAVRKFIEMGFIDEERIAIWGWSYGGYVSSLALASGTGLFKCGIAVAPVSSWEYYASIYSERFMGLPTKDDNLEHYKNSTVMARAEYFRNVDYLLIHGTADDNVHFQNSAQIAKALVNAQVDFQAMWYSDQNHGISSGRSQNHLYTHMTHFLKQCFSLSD
Method: as §1, §2, §3

B1: bispecific, tetravalent anti-murine OX40, monovalent anti-murine EpCAM 4+1 molecule (muOX40 OX86/muEpCAM G8.8 DAPG 4+1) (bispecific antibody, mouse IgG1, kappa)
heavy 1: QVQLKESGPGLVQPSQTLSLTCTVSGFSLTGYNLHWVRQPPGKGLEWMGRMRYDGDTYYNSVLKSRLSISRDTSKNQVFLKMNSLQTDDTAIYYCTRDGRGDSFDYWGQGVMVTVSSAKTTPPSVYPLAPGSAAQTNSMVTLGCLVKGYFPEPVTVTWNSGSLSSGVHTFPAVLQSDLYTLSSSVTVPSSTWPSQTVTCNVAHPASSTKVDKKIVPRDCGGGGSGGGGSQVQLKESGPGLVQPSQTLSLTCTVSGFSLTGYNLHWVRQPPGKGLEWMGRMRYDGDTYYNSVLKSRLSISRDTSKNQVFLKMNSLQTDDTAIYYCTRDGRGDSFDYWGQGVMVTVSSAKTTPPSVYPLAPGSAAQTNSMVTLGCLVKGYFPEPVTVTWNSGSLSSGVHTFPAVLQSDLYTLSSSVTVPSSTWPSQTVTCNVAHPASSTKVDKKIVPRDCGCKPCICTVPEVSSVFIFPPKPKDVLTITLTPKVTCVVVAISKDDPEVQFSWFVDDVEVHTAQTKPREEQINSTFRSVSELPIMHQDWLNGKEFKCRVNSAAFGAPIEKTISKTKGRPKAPQVYTIPPPKEQMAKDKVSLTCMITNFFPEDITVEWQWNGQPAENYDNTQPIMDTDGSYFVYSDLNVQKSNWEAGNTFTCSVLHEGLHNHHTEKSLSHSPGGGGGSGGGGSGGGGSGGGGSDIQMTQSPASLSASLGETVSIECLASEGISNDLAWYQQKSGKSPQLLIYATSRLQDGVPSRFSGSGSGTRYSLKISGMQPEDEADYFCQQSYKYPWTFGGGTKLELK
heavy 2: QVQLKESGPGLVQPSQTLSLTCTVSGFSLTGYNLHWVRQPPGKGLEWMGRMRYDGDTYYNSVLKSRLSISRDTSKNQVFLKMNSLQTDDTAIYYCTRDGRGDSFDYWGQGVMVTVSSAKTTPPSVYPLAPGSAAQTNSMVTLGCLVKGYFPEPVTVTWNSGSLSSGVHTFPAVLQSDLYTLSSSVTVPSSTWPSQTVTCNVAHPASSTKVDKKIVPRDCGGGGSGGGGSQVQLKESGPGLVQPSQTLSLTCTVSGFSLTGYNLHWVRQPPGKGLEWMGRMRYDGDTYYNSVLKSRLSISRDTSKNQVFLKMNSLQTDDTAIYYCTRDGRGDSFDYWGQGVMVTVSSAKTTPPSVYPLAPGSAAQTNSMVTLGCLVKGYFPEPVTVTWNSGSLSSGVHTFPAVLQSDLYTLSSSVTVPSSTWPSQTVTCNVAHPASSTKVDKKIVPRDCGCKPCICTVPEVSSVFIFPPKPKDVLTITLTPKVTCVVVAISKDDPEVQFSWFVDDVEVHTAQTKPREEQINSTFRSVSELPIMHQDWLNGKEFKCRVNSAAFGAPIEKTISKTKGRPKAPQVYTIPPPKKQMAKDKVSLTCMITNFFPEDITVEWQWNGQPAENYKNTQPIMKTDGSYFVYSKLNVQKSNWEAGNTFTCSVLHEGLHNHHTEKSLSHSPGGGGGSGGGGSGGGGSGGGGSEVQLAESGGGLVQPGRSMKLSCAASGFTFSNFPMAWVRQAPTKGLEWVATISTSGGSTYYRDSVKGRFTISRDNAKSTLYLQMNSLRSEDTATYYCTRTLYILRVFYFDYWGQGVMVTVSS
light: DIVMTQGALPNPVPSGESASITCRSSQSLVYKDGQTYLNWFLQRPGQSPQLLTYWMSTRASGVSDRFSGSGSGTYFTLKISRVRAEDAGVYYCQQVREYPFTFGSGTKLEIKRADAAPTVSIFPPSSEQLTSGGASVVCFLNNFYPKDINVKWKIDGSERQNGVLNSWTDQDSKDSTYSMSSTLTLTKDEYERHNSYTCEATHKTSTSPIVKSFNRNEC
notes: muIgG1 DAPG with DDKK heterodimerisation; also called 4+1 muEpCAM; 4 + 1 anti-muOX40, anti-muEpCAM
With B1 as the binder, how does the EC50 (murine EpCAM) read?
The EC50 was 82.5 nM.

What about the EC50 (murine OX40 [1]) of the same binder?
Its EC50 is 1.47 nM.

And the EC50 (murine OX40 [2])?
The EC50 was 0.82 nM.

Does B1 bind (murine FAP)?
Result: no binding
